# Laboratory results: patent US20150197568A1 (AstraZeneca / MedImmune, published 2015)
# Numbering of substitutions follows the chain as printed.
# B1: Antibody 5 scFv (scFv, V domains shown)
# VH: EVQLVQSGGGLIQPGGSLRLSCAASGFTISSNYMIWVRQAPGKGLEWVSDLYYYAGDTYYADSVKGRFTMSRDISKNTVYLQMNSLRAEDTGVYYCARWADGHYYYADVWGRGTLVSVSS
# VL: DIVMTQSPPTLSASVGDRVTITCRASQGISSWLAWYQQKPGRAPKVLIYKASTLESGVPSRFSGSGSGTDFTLTISSLQPEDFASYYCQQSYSAPWTFGQGTKLEIKR
# notes: Non-germlined; also called Ab 5; not shown: scFv linker, domain order and any purification tags
# B2: Antibody 3 IgG (antibody, V domains shown)
# VH: B1 VH with E1Q, I35V, M70V, G102D, Y106H, A107I, S117T
# VL: B1 VL with P9S, V46A, S85T, A94T
# notes: Non-germlined; IgG1 with human heavy chain and kappa constant domains; also called Ab 3
# B3: Antibody 3 scFv (scFv, V domains shown)
# VH: B1 VH with E1Q, I35V, M70V, G102D, Y106H, A107I, S117T
# VL: B1 VL with P9S, V46A, S85T, A94T
# notes: Non-germlined; also called Ab 3; not shown: scFv linker, domain order and any purification tags
# B4: Antibody 5 IgG (antibody, V domains shown)
# VH: B1 VH
# VL: B1 VL
# notes: Non-germlined; IgG1 with human heavy chain and kappa constant domains; also called Ab 5
# B5: Antibody 2 IgG (antibody, V domains shown)
# VH: B1 VH with I35T, K65R, N84D, A107I, R112G, S117T
# VL: B1 VL with P9S, A34T, S85T, I106L
# notes: Non-germlined; also called Ab 2
# B6: Antibody 2 scFv (scFv, V domains shown)
# VH: B1 VH with I35T, K65R, N84D, A107I, R112G, S117T
# VL: B1 VL with P9S, A34T, S85T, I106L
# notes: Non-germlined; also called Ab 2; not shown: scFv linker, domain order and any purification tags
# B7: Antibody 4 scFv (scFv, V domains shown)
# VH: B1 VH with I29V, I35T
# VL: B1 VL with P9S, I106L
# notes: Non-germlined; also called Ab 4; not shown: scFv linker, domain order and any purification tags
# B8: Antibody 4 IgG (antibody, V domains shown)
# VH: B1 VH with I29V, I35T
# VL: B1 VL with P9S, I106L
# notes: Non-germlined; IgG1 with human heavy chain and kappa constant domains; also called Ab 4
# B9: Antibody 8 IgG (antibody, V domains shown)
# VH: B1 VH with G102D, Y104P, Y105R, A107I, V109H, S117T
# VL: DIVMTQSPSTLSASVGDRVTITCRASQGISSWLAWYQQKPGRAPKVLIYKASTLESGVPSRFSGSGSGTDFTLTISSLQPEDFATYYCQQSWLGGSFGQGTKLEIKR
# B10: Antibody 16 IgG (antibody, V domains shown)
# VH: B1 VH with G102D, Y104P, Y105P, A107I, V109L, S117T
# VL: B9 VL
# B11: Antibody 14 IgG (antibody, V domains shown)
# VH: EVQLVQSGGGLIQPGGSLRLSCAASGFTISSNYMIWVRQAPGKGLEWVSDLYYYAGDTYYADSVKGRFTMSRDISKNTVYLQMNSLRAEDTGVYYCARWADDHNYPHIDVWGRGTLVTVSS
# VL: B1 VL with P9S, S85T, Q89A, Q90A, S91H, S93A
# B12: Antibody 23 IgG (antibody, V domains shown)
# VH: B1 VH with G102D, Y104A, Y105P, Y106W, A107V, V109L, S117T
# VL: B9 VL
# B13: Antibody 19 IgG (antibody, V domains shown)
# VH: B1 VH with G102D, Y104P, Y105S, Y106H, A107L, V109I, S117T
# VL: B9 VL
# B14: Antibody 17 (GL) IgG (antibody, V domains shown)
# VH: B1 VH with Q6E, I12V, G92A, G102D, Y104P, Y105P, A107I, V109M, S117T
# VL: B9 VL with V3Q, R42K, D70E, E81D
# B15: Antibody 7 (GL) IgG (antibody, V domains shown)
# VH: B1 VH with Q6E, I12V, G92A, G102D, Y104P, Y105A, Y106W, A107V, V109L, S117T
# VL: B9 VL with V3Q, R42K, D70E, E81D
# notes: Germlined IgG1 with human kappa constant domain; also called Ab 7
# B16: Antibody 10 (GL) IgG (antibody, V domains shown)
# VH: EVQLVESGGGLVQPGGSLRLSCAASGFTISSNYMIWVRQAPGKGLEWVSDLYYYAGDTYYADSVKGRFTMSRDISKNTVYLQMNSLRAEDTAVYYCARWEEEGRGYIDVWGRGTLVTVSS
# VL: B9 VL with V3Q, R42K, D70E, E81D
# B17: Antibody 18 (GL) IgG (antibody, V domains shown)
# VH: B16 VH with E100A, E101D, E102D, G103H, R104P, G105P, Y106W, V109L
# VL: B9 VL with V3Q, R42K, D70E, E81D
# notes: Germlined IgG1/kappa; also called Ab 18
# B18: CAN022D10 scFv (scFv, V domains shown)
# VH: B1 VH with G102D, A107I, S117T
# VL: B1 VL with P9S, S85T, A94T
# notes: Purified scFv from bacteria; also called CAN22D10; parent; not shown: scFv linker, domain order and any purification tags
# B19: Cynomolgus IL-6 (ligand, UniProt P79341 28-212, looked up)
# chain: APVLPGEDSKDVAAPHSQPLTSSERIDKHIRYILDGISALRKETCNRSNMCESSKEALAENNLNLPKMAEKDGCFQSGFNEDTCLVKIITGLLEFEVYLEYLQNRFESSEEQARAVQMSTKVLIQFLQKKAKNLDAITTPEPTTNASLLTKLQAQNQWLQDMTTHLILRSFKEFLQSSLRALRQM
# notes: mature; also called cyno IL-6; macaque IL-6
# Biological target: T1, Mature human IL-6 (human, UniProt P05231 30-212)
# Test: cell-based or functional assay
row,Binder,"IC50, TF-1 Proliferation Assay [pM]"
1,B1,12400
2,B2,50
3,B3,7300
4,B4,42
5,B5,16
6,B6,9600
7,B7,13400
8,B8,61

# Biological target: T1, Mature human IL-6
# Test: cell-based or functional assay
# Remark: another data set of the same source
# Target sequence in this assay (P05231 30-212): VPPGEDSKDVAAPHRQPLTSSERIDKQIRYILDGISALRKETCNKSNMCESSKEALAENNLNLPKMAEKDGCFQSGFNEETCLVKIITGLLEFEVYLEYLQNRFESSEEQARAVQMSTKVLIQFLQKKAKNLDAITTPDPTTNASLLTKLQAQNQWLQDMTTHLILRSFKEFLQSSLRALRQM
row,Binder,"IC50, TF-1 cell proliferation assay [pM]"
1,B9,48
2,B10,4.9
3,B11,31
4,B12,20
5,B13,68

# Biological target: T1, Mature human IL-6
# Test: cell-based or functional assay
# Remark: another data set of the same source
# Target sequence in this assay (P05231 30-212): as above
row,Binder,"IC50, IL-6 induced TF-1 cell proliferation assay [pM]"
1,B14,1
2,B15,5
3,B16,71
4,B17,3

# Biological target: T1, Mature human IL-6
# Test: cell-based or functional assay
# Remark: another data set of the same source
# Target sequence in this assay (P05231 30-212): as above
row,Binder,"IC50, endogenous IL-6 induced synovial fibroblast VEGF release assay [pM]"
1,B14,570
2,B15,750
3,B16,550
4,B2,380
5,B17,930
6,B4,700
7,B5,590
8,B8,520

# Biological target: T1, Mature human IL-6
# Test: cell-based or functional assay
# Remark: another data set of the same source
row,Binder,"Mean IC50, inhibition of IL-6 induced IgM secretion from SKW6.4 cells, n=3 [pM]"
1,B14,3.21
2,B15,2.64
3,B17,2.63

# Biological target: T1, Mature human IL-6
# Test: SPR, BIAcore 2000; IgG amine-coupled to CM5 chip, IL-6 as analyte
# Method: (§1) Human and cynomolgus IL-6 at a range of concentrations between 200 nM and 0.2 nM in HBS-EP buffer were passed over the sensor chip surface. The resulting sensorgrams were evaluated using BIA evaluation 3.1 software to provide relative binding data.
# (§2) BIAcore studies were undertaken using a BIAcore 2000™. […] Human IL-6 at a range of concentrations between 200 nM and 0.2 nM in HBS-EP buffer were passed over the sensor chip surface. The resulting sensorgrams were evaluated using BIA evaluation 3.1 software to calculate the kₒₙ, koff and KD values for the antibodies tested.
row,Binder,Kd [pM]
1,B15,< 10
2,B17,< 10

# Biological target: B19
# Test: as above
# Method: as §1, §2
row,Binder,Kd [pM]
1,B15,< 10
2,B17,< 10

# Biological target: T2, HIS FLAG tagged human IL-6 (human, UniProt P05231 30-212)
# T2 construct: In house; also called HIS FLAG IL-6; HIS/FLAG IL-6
# Test: HTRF antibody-ligand competition; competitor biotinylated CAN022D10 IgG
# Method: (§3) Crude scFv preparations from a representative number of individual clones for the round 3 and round 4 outputs were screened for their inhibitory activity in a CAN022D10 IgG-IL-6 HTRF® binding assay. In this assay, binding of biotinyated antibody and FLAG-tagged IL-6 was detected using cryptate labelled anti-FLAG monoclonal antibody and streptavidin XL^{ent!}™. The detailed assay method is provided in the Materials and Methods section.
# (§4) The IC₅₀ value for each scFv was then calculated from data obtained by a testing dilution series of the purified sample in the HTRF antibody-ligand biochemical assay and TF-1 proliferation assay.
# Target sequence in this assay (P05231 other isoform, or with tags, fused parts or gaps): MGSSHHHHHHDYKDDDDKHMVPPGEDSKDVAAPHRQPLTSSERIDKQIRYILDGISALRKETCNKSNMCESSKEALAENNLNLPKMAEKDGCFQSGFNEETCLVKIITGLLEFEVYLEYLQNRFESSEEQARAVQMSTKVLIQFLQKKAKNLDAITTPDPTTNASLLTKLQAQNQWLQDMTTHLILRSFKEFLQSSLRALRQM
row,Binder,IC50 [pM]
1,B1,65
2,B3,22
3,B6,35
4,B7,24

# Biological target: T2, HIS FLAG tagged human IL-6
# Test: HTRF receptor-ligand competition; HIS FLAG human IL-6 vs biotinylated sIL-6R
# Method: Unique scFvs were expressed again in bacteria and purified by affinity chromatography (as described by Bannister et al. Purified IgG samples of these clones were also prepared as described in section 1.3. The potencies of these samples were determined by competing a dilution series of the purified preparation against biotinylated sIL-6R for binding to HIS FLAG tagged human IL-6 (in house E. coli derived).
# Purified scFv and IgG from positive clones identified from screening were tested in a HTRF® assay for inhibition of binding of HIS FLAG tagged human IL-6 to biotinylated IL-6R. 8 nM biotinylated human IL-6R was pre-incubated for 30 minutes at room temperature in the dark, with 8 nM streptavidin XL^{ent!}™. All dilutions were done in phosphate buffered saline (PBS) containing 0.4 M potassium fluoride and 0.1% BSA (assay buffer).
row,Binder,IC50 [pM]
1,B18,45000

# Biological target: T3, CAN022D10 IgG
# T3 construct: Biotinylated in the HTRF antibody-ligand assay; also called CAN22D10; parent IgG
# Test: DELFIA epitope competition; protein titrated against biotinylated HIS FLAG IL-6 on immobilised CAN022D10 IgG
# Method: Titrations of IL-6 species including cynomolgus (in house E. Coli derived), human HIS FLAG IL-6 (in house HEK-EBNA derived), rat and murine IL-6 (both R & D Systems) were tested in each assay to establish the species cross-reactivity of the antibodies. Details of the protocol are provided in the Materials and Methods section.
# Purified IgG were adsorbed onto 96-well Maxisorp microtitre plates (Nunc) in PBS at a concentration which gave a significant signal when biotinylated human IL-6 was added at approximately its estimated Kd for that particular IgG. Excess IgG was washed away with PBS-Tween (0.1% v/v) and the wells were blocked with PBS-Marvel (3% w/v) for 1 h. […] These mixtures were then transferred onto the blocked IgG and allowed to equilibrate for 1.5 h. Unbound antigen was removed by washing with PBS-Tween (0.1% v/v), while the remaining biotinylated human IL-6 was detected by streptavidin-Europium3+ conjugate (DELFIA® detection, PerkinElmer). Time-resolved fluorescence was measured at 620 nm on an EnVision plate reader (PerkinElmer). Fluorescence data was converted to % specific binding (100% was determined from control wells containing biotinylated human IL-6 but no competitor, 0% was from wells containing biotinylated human IL-6 and a 100-fold excess of unbiotinylated human IL-6). Resultant data were analysed using Prism curve fitting software (Graphpad) to determine IC50 values according to Equation 3.
row,Binder,IC50 [pM]
1,B19,~100000

# Biological target: T2, HIS FLAG tagged human IL-6
# Test: HTRF antibody-ligand competition; competitor biotinylated CAN022D10 IgG; protocol modified for IgG (footnote)
# Method: as §3, §4
# Target sequence in this assay (P05231 other isoform, or with tags, fused parts or gaps): as above
row,Binder,IC50 [pM]
1,B2,43
2,B4,26
3,B5,36
4,B8,43
